We go through three compounds from patent US5447852A, “DNA encoding cyclophilin C, and recombinant methods employing it” (The Board of Trustees of the Leland Stanford Junior …, priority 1993, dated 1995).

For series [1], the target named is cyp C:p77 complex (cyp C-GST fusion protein and 77Kd protein) (Mus musculus, UniProt P30412). On the procedure:
(§1) FIG. 6. […] Control samples were incubated with 10 μg of GST. Experimental samples were incubated with 10 μg of cyp C-GST fusion protein plus the indicated drug concentration.
(§2) 10^7 TCA precipitable counts of labeled lysate were used per reaction. Reaction volumes were brought up to 1 ml in lysis buffer. Each reaction was precleared by incubation with 10 μg of glutathione-s-transferase (GST) and 100 μl of 50% glu-ag solution for 2 hours at 4° C. with gentle agitation. Reactions were spun 5 minutes in a microfuge at 4° C., and the pellets were discarded. To the precleared lysates, 10 μg of cyp C fusion protein was added, along with 30 μl of a 50% solution of glu-ag. Reactions were incubated at 4° with gentle agitation for 3-4 hours, at which time tubes were spun 5 minutes in a microfuge at 4° C., and the supernatants were removed. Glu-ag pellets were washed 4× with 1 ml of cold lysis buffer, being transferred to a fresh tube for the final wash. […], and the pellet was resuspended in 50- 100 μl of SDS-PAGE sample buffer containing β-mercaptoethanol. Samples were boiled 5 minutes and loaded onto 9.5% SDS-PAGE gels. Gels were stained/fixed in methanol: acetic acid: coomassie blue, and destained in methanol: acetic acid.

For series [2], the system named is cyp C mRNA in AC 6 cells. Description: Northern analysis of cyp C mRNA in AC 6 cells. Format: cell-based, murine.
Description: Purified inserts were labeled by random priming in the presence of 50 μCi [alpha-32P] dCTP (Amersham) and were purified by chromatography over a Sephadex G-50 column. […] RNA was blotted onto nitrocellulose filters and prehybridized and hybridized in a solution containing 50% formamide, 6×SSC, 5×Denhardt's solution, 5 mM NaPO4, 100 ug/ml sheared, denatured salmon sperm DNA, and 50 ug/ml yeast tRNA. Labeled cDNA probe, prepared as described above, was hybridized for 16 hours at 45° C. for 30 minutes, followed by washing in 0.2×SSC plus 0.1% SDS at 65° C. for 30 minutes. Filters were then placed on film for autoradiographic visualization.
Twenty μg of total RNA from each source was run on a 1.2% agarose formaldehyde gel and blotted onto Genescreen (DuPont) membrane. Filters were hybridized as described above for 18 hours. The final wash conditions were 0.2×SSC, 0.1% SDS at 65° C. […] The autoradiograms presented in the Figure represent exposures of 3 days at -70° C. with an intensifying screen for both the cyp A and the cyp C probes.
Series [3] concerns cyp A mRNA in AC 6 cells. The experiment in a line: Northern analysis of cyp A mRNA in AC 6 cells. Format: cell-based, murine. The following applies: AC 6 cells (FIG. 3). On the procedure: Individual bacterial colonies containing phagemid vectors which had undergone two rounds of subtraction were cultured, and plasmid miniprep DNA was prepared from them by the NaOH/SDS, NaAcetate method. cDNA inserts were isolated by digestion of the plasmid DNA with Stu 1 and Hd III followed by low-melt agarose gel electrophoresis. Inserts were visualized by UV light and excised and purified by organic extraction and precipitation for use as templates for ^32 p probe synthesis. Purified inserts were labeled by random priming in the presence of 50 μCi [alpha-32P] dCTP (Amersham) and were purified by chromatography over a Sephadex G-50 column. AC 6MRNA prepared from IL-1 induced and uninduced cultures was electrophoresed on 1.0% formaldehyde-agarose gels using 0.5 μg RNA/lane as described (Sambrook, 1989). RNA was blotted onto nitrocellulose filters and prehybridized and hybridized in a solution containing 50% formamide, 6×SSC, 5×Denhardt's solution, 5 mM NaPO4, 100 ug/ml sheared, denatured salmon sperm DNA, and 50 ug/ml yeast tRNA. Labeled cDNA probe, prepared as described above, was hybridized for 16 hours at 45° C. […], followed by washing in 0.2×SSC plus 0.1% SDS at 65° C. for 30 minutes. Filters were then placed on film for autoradiographic visualization. […]

For series [4], the target named is T1, cyp C:CsA:p55 complex (cyp C-GST fusion protein and 55Kd protein) (Mus musculus, UniProt P30412).
T1 construct: A portion of the cyp C cDNA encoding aa 16-212 was cloned into the bacterial expression vector pGEX 2T; made in house; host or cells: E. coli MC1061 (cyp C-GST); 55Kd protein from labelled AC 6 cell lysate
Description: Cyp C affinity reactions with 35S labeled cell lysate: 55Kd protein. Format: binding, murine. The settings on record: AC 6 cells, 77Kd and 55Kd proteins (FIG. 5). On the procedure: as §1, §2

Series [5] has as its target cyp C-GST fusion protein (glutathione-s-transferase fused to aa 16-212 of murine cyclophilin C), without CsA (murine).

T1 sequence (P30412 with tags, fused parts or gaps limits assumed): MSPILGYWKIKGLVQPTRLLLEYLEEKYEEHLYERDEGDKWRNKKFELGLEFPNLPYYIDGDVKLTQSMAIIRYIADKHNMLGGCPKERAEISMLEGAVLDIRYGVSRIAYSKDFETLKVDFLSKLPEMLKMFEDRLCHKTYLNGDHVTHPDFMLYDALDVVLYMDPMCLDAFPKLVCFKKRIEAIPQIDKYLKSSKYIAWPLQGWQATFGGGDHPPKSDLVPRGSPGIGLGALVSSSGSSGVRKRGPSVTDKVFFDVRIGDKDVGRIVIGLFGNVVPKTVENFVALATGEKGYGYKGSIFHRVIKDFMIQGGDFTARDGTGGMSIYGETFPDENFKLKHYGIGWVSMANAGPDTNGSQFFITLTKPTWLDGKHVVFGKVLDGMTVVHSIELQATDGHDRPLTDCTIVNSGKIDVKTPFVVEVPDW
Sequence of cyp C:p77 complex (cyp C-GST fusion protein and 77Kd protein) (P30412 with tags, fused parts or gaps limits assumed): as above

For the compound `C=CC[C@@H]1/C=C(\C)C[C@H](C)C[C@H](OC)[C@H]2O[C@@](O)(C(=O)C(=O)N3CCCC[C@H]3C(=O)O[C@H](/C(C)=C/[C@@H]3CC[C@@H](O)[C@H](OC)C3)[C@H](C)[C@@H](O)CC1=O)[C@H](C)C[C@@H]2OC` [FK506], the “effect on the binding of cyp C to the 77Kd protein” value in series [1] was “no effect”.
Take “IL-1: hematopoietic and inflammatory cytokine; unpurified recombinant human IL-1 alpha used for induction of AC 6 cells”: in series [2] (AC 6 cells (FIG. 3)), the “elevation of cyp C mRNA in response to IL-1” value is reported as “elevated approximately three-fold”. For the same compound, the “induction of cyp C message levels” value in series [2] (AC 6 stromal cell line treated with IL-1) is given as 2-3 fold. In series [3], the “elevation of cyp A mRNA in response to IL-1” value was “elevated approximately three-fold”. Further, in series [4], the “effect of IL-1 in the culture media during metabolic labeling on the associating proteins” value is reported as “no obvious effect”.
Take cyclosporin A (peptide): the CsA concentration that completely inhibits the isomerase activity of cyp C in series [5] is 2 µg/mL.
